# According to PMC9330781:
# Target: Recombinant blood coagulation factor VIII (human)
# Conditions: scale: times higher molar excess over FVIII
binder,measurement,value
Thrombin-cleaved iKM33-v2 (mixture of dissociated VH and VL) (protein) VH: EVQLVESGGGVVQPGRSLRLSCVDSGLTFSSYGMHWVRQAPGAGLEWVAVISYDGNDKYYADSVKGRFAISRDNAKNTLYLQMNSLTIEDTAVYYCAKDLIESNIAEAFWGQGTLVTVSS VL: DIQMTQSPSSLSASVGDTVTIACRASRDIRNDLAWYQQKPGKAPKLLIYATSRLQSGVPSRFSGSGSFTDFTLTINSLQPDDSATYYCLQDSDYPLTFGGGTKVDIK,FVIII activity in the chromogenic substrate (CS) assay; thrombin-cleaved scFv 1000 to 0.24 nM with 145 pM FVIII; molar excess needed for the same inhibition as the non-cleaved scFv,100
